# T1: human IL2Ra (human, UniProt P01589 22-240, limits assumed)
# T1 construct: coated on the ELISA plate; also called IL-2 receptor alpha
# T1 sequence (looked up): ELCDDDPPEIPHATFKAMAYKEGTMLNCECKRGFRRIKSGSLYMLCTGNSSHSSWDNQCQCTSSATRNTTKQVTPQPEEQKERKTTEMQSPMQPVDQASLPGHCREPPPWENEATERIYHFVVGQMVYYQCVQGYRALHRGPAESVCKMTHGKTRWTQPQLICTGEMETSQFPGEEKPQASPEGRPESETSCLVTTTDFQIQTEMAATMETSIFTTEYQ
# T2: human IL-11 (human, UniProt P20809 22-199)
# T2 construct: Invigate recombinant protein; biotinylated when immobilized in the Di-complex ELISA; also called hIL11; hIL-11
# T2 sequence: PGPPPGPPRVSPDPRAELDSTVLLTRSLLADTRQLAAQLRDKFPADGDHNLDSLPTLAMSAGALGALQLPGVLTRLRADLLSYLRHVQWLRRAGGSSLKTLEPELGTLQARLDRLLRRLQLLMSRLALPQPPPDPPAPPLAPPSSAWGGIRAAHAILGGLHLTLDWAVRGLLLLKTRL
# T3: human IL2Ra (Peprotech, Germany, #200-02RC) (human, UniProt P01589 22-240)
# T3 construct: Coated on the ELISA plate; also called hIL2Ra; IL-2 receptor alpha
# T3 sequence (looked up): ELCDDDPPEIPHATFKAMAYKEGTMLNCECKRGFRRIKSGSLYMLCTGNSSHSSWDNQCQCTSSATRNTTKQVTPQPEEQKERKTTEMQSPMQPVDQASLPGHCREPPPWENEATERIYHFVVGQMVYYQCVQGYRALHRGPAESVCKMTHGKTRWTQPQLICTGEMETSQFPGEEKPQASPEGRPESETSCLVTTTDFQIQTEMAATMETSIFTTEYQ
# T4: murine IL-11 (mouse, UniProt P47873 22-199)
# T4 sequence: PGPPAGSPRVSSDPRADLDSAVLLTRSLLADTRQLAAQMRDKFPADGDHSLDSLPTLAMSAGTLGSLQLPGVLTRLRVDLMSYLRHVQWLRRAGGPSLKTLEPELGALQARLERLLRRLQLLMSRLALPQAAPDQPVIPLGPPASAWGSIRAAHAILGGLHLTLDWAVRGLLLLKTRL
# What was measured:
# human IL2Ra = target: T1, human IL2Ra; experiment: ELISA on coated IL2Ra, signal ratio to isotype control
# Protocol: IL2RA (Peprotech, Germany, #200-02RC) was coated at 1 or 0 μg/ml (buffer only control) in 30 μl coating buffer (Candor, #113500) per well on a 384 well microtiter plate (Maxisorb, Nunc, #460518) over night at 4-8° C. After two washes with 50 μl/well washing buffer (PBS+0.05% Tween, pH 7.4), the plates were incubated for two hours at room temperature with 50 μl/well SmartBlock (Candor, #113500). After blocking, the plates were washed three times with washing buffer. Then, a dilution series of the respective antibody (1E-7 [M] down to 2E-13 [M]) in PBS+0.05% Tween, 10% SmartBlock were added in 30 μl to the microtiter plate and incubated for 90 min at room temperature. After three additional washes, 30 μl anti mouse IgG HRP-conjugated antibody (Biotechne, HAF007), diluted 1:1000 in PBS+0.05% Tween (pH 7.4), were added per well and incubated for one hour. […] Relative fluorescence was measured with a microtiter plate reader at 535/590 nm.
# Bispecific antibodies were subjected to the experimental assay procedure described in Example 20. Ratios of the signals generated at an antibody concentration of 1E-07 [M] by the respective bispecific antibody versus those of an isotype control antibody were calculated and are shown in Table E29. […]
# human IL-11 [1] = target: T2, human IL-11; experiment: Tri-complex ELISA, hIL-11 + mIL-11Ra-Fc + hgp130-Fc, inhibition of complex formation
# Protocol: In the Tri-complex ELISA format IL-11 antibodies are tested for their ability to inhibit the formation of a complex consisting of murine or human gp130-Fc fusion protein, with murine or human IL-11, and a murine IL11RA-Fc fusion protein. The assay format was adapted according to FIG. 18 (a, b), depending on whether murine or human IL-11 IgG antibodies were tested.
# Bispecific antibodies were subjected to the experimental assay procedure described in Example 19 and IC50 [M], respectively efficacy (%) were calculated accordingly.
# [2] = target: T3, human IL2Ra (Peprotech, Germany, …); experiment: direct binding ELISA on coated IL2Ra, antibody at 3.3E-7 [M]
# Protocol: IL2RA (Peprotech, Germany, #200-02RC) was coated at 1 or 0 μg/ml (buffer only control) in 30 μl coating buffer (Candor, #113500) per well on a 384 well microtiter plate (Maxisorb, Nunc, #460518) over night at 4-8° C. After two washes with 50 μl/well washing buffer (PBS+0.05% Tween, pH 7.4), the plates were incubated for two hours at room temperature with 50 μl/well SmartBlock (Candor, #113500). After blocking, the plates were washed three times with washing buffer. […] After three additional washes, 30 μl anti mouse IgG HRP-conjugated antibody (Biotechne, HAF007), diluted 1:1000 in PBS+0.05% Tween (pH 7.4), were added per well and incubated for one hour. After three additional washes, a mixture of Amplex red (Invitrogen, #12222, 10 mM stock solution in DMSO) 1:1000 diluted in PBS and H2O2 (30%, Merck, #107209)) diluted 1:10000 in PBS were added as substrate with 30 μl per well and incubated for 20 min in the dark. Relative fluorescence was measured with a microtiter plate reader at 535/590 nm.
# [3] = target: T3, human IL2Ra (Peprotech, Germany, …); experiment: direct binding ELISA on coated IL2Ra
# human IL-11 [4] = target: T2, human IL-11; experiment: cell-based or functional assay
# murine IL-11 = target: T4, murine IL-11; experiment: cell-based or functional assay
Binder,ratio of the signals versus the isotype control TPP-10159 [2],binding result [3],"Efficacy (%), Stat3 reporter gene assay (human IL-11 [4]) [%]","IC50, Stat3 reporter gene assay (human IL-11 [4]) [nM]","Efficacy (%), Stat3 reporter gene assay (murine IL-11) [%]","IC50, Stat3 reporter gene assay (murine IL-11) [nM]",further results
"TPP-29603 (bispecific antibody, IgG1, scFv-kih-mIgG1; bispecific comprising CDRs of TPP-29528 and TPP-29519) chain 1: QVQLVESGGGVVQPGRSLRLSCAASGFTFSHYDMHWVRQAPGKGLEWVAVISYHGSVKFYADSVKGRFTISRDNSKNTLYLQMNSLRAEDTAVYYCARTPGFHFDYWGQGTLVTVSSGGGGSGGGGSGGGGSQSVLTQPPSASGTPGQRVTISCSGSSSNIGSNYVSWYQQLPGTAPKLLIYYDDLRPSGVPDRFSGSKSGTSASLAISGLRSEDEADYYCSAWDDSLSGVVFGGGTKLTVLGGGGSGGGGSGGGGSGVECPPCPAPPVAGPSVFIFPPKPKDVLTITLTPKVTCVVVDISKDDPEVQFSWFVDDVEVHTAQTQPREEQFNSTFRSVSELPIMHQDWLNGKEFKCRVNSAAFPAPIEKTISKTKGRPKAPQVYTIPPCKEQMAKDKVSLWCMITDFFPEDITVEWQWNGQPAENYKNTQPIMDTDGSYFVYSKLNVQKSNWEAGNTFTCSVLHEGLHNHHTEKSLSHSPGK chain 2: EVQLLESGGGLVQPGGSLRLSCAASGFTFSSYGMHWVRQAPGKGLEWVAVISYDGSYKYYADSVKGRFTISRDNSKNTLYLQMNSLRAEDTAVYYCAAGVPDYWGQGTLVTVSSGGGGSGGGGSGGGGSQSVLTQPPSASGTPGQRVTISCSGSSSNIGSDYDVHWYQQLPGTAPKLLIYSNEERPSGVPDRFSGSKSGTSASLAISGLRSEDEADYYCSAWDSSLSGPVFGGGTKLTVLGGGGSGGGGSGGGGSGVECPPCPAPPVAGPSVFIFPPKPKDVLTITLTPKVTCVVVDISKDDPEVQFSWFVDDVEVHTAQTQPREEQFNSTFRSVSELPIMHQDWLNGKEFKCRVNSAAFPAPIEKTISKTKGRPKAPQVCTIPPPKEQMAKDKVSLSCAITDFFPEDITVEWQWNGQPAENYKNTQPIMDTDGSYFVVSKLNVQKSNWEAGNTFTCSVLHEGLHNHHTEKSLSHSPGK",–,–,–,–,–,–,binding result (human IL2Ra): no binding (tested: 1E-07 M antibody); Efficacy (%) (human IL-11 [1]): 98.5%; IC50 (human IL-11 [1]): 0.696 nM
"TPP-18087 (antibody, mouse IgG1, V domains shown, mIgG1, Lambda) VH: EVQLLESGGGLVQPGGSLRLSCAASGFTFSHYDMNWLRQAPGKGLEWVGVISYDGSNKFYADFVKGRFTISRDNSKNTLYLQMNSLRAEDTAVYYCARTPGSHFDYWGQGTLVTVSS VL: QSVLTQPPSASGTPGQRVTISCSGSSSNIGNNAVNWYQQLPGTAPKLLIYYDDLLPSGVPDRFSGSKSGTSASLAISGLRSEDEADYYCSAWDDSLNGVVFGGGTKLTVLG [TPP-18087, listing 1 of 2 here]",2.4,no binding (tested: 3.3E-7 [M] antibody),–,–,–,–,–
"TPP-19528 (antibody, mouse IgG1, V domains shown, mIgG1, Lambda) VH: EVQLLESGGGLVQPGGSLRLSCAASGFTFSIYAMSWVRQAPGKGLEWVSSISDTGDRTYYADSVKGRFTISRDNSKNTLYLQMNSLRAEDTAVYYCARSNWGSLDYWGQGTLVTVSS VL: QSVLTQPPSASGTPGQRVTISCSGSSSNIGSNYVYWYQQLPGTAPKLLIYYDDLLPSGVPDRFSGSKSGTSASLAISGLRSEDEADYYCAAWDDSLSGRVFGGGTKLTVLG",0.8,no binding (tested: 3.3E-7 [M] antibody),–,–,–,–,–
"TPP-18087 (antibody, mouse IgG1, V domains shown, mIgG1, Lambda) VH: EVQLLESGGGLVQPGGSLRLSCAASGFTFSHYDMNWLRQAPGKGLEWVGVISYDGSNKFYADFVKGRFTISRDNSKNTLYLQMNSLRAEDTAVYYCARTPGSHFDYWGQGTLVTVSS VL: QSVLTQPPSASGTPGQRVTISCSGSSSNIGNNAVNWYQQLPGTAPKLLIYYDDLLPSGVPDRFSGSKSGTSASLAISGLRSEDEADYYCSAWDDSLNGVVFGGGTKLTVLG [TPP-18087, listing 2 of 2 here]",–,–,51.5,110,49,330,–
"TPP-18068 (antibody, mouse IgG1, mIgG1, Lambda) heavy: EVQLLESGGGLVQPGGSLRLSCAASGFTFSSYGMHWVRQAPGKGLEWVSVISYDGSYKYYADSVKGRFTISRDNSKNTLYLQMNSLRAEDTAVYYCAAGVPDYWGQGTLVTVSSAKTTPPSVYPLAPGSAAQTNSMVTLGCLVKGYFPEPVTVTWNSGSLSSGVHTFPAVLQSDLYTLSSSVTVPSSTWPSETVTCNVAHPASSTKVDKKIVPRDCGCKPCICTVPEVSSVFIFPPKPKDVLTITLTPKVTCVVVDISKDDPEVQFSWFVDDVEVHTAQTQPREEQFNSTFRSVSELPIMHQDWLNGKEFKCRVNSAAFPAPIEKTISKTKGRPKAPQVYTIPPPKEQMAKDKVSLTCMITDFFPEDITVEWQWNGQPAENYKNTQPIMDTDGSYFVYSKLNVQKSNWEAGNTFTCSVLHEGLHNHHTEKSLSHSPGK light: QSVLTQPPSASGTPGQRVTISCTGSSSNIGAGYDVHWYQQLPGTAPKLLIYSNNERPSGVPDRFSGSKSGTSASLAISGLRSEDEADYYCAAWDDSLNGPVFGGGTKLTVLGQPKSSPSVTLFPPSSEELETNKATLVCTITDFYPGVVTVDWKVDGTPVTQGMETTQPSKQSNNKYMASSYLTLTARAWERHSSYSCQVTHEGHTVEKSLSRADCS",–,–,20.7,4.8,84.1,2.7,–
